The text below walks through data of US20240352096A1 (KANGLIN BIOTECHNOLOGY HANGZHOU, published 2024).

What all share (assay): cell-based or functional assay
Assay [1] concerns the target T1, HIV-1 envelope protein of HIV-1 strain pNL4-3 (CXCR4 tropism) (HIV-1 strain pNL4-3).
Assay [2] concerns the target T2, HIV-1 envelope protein of HIV-1 strain pAD-8 (CCR5 tropism) (HIV-1 strain pAD-8).
Assay [3] addresses T1, HIV-1 envelope protein of HIV-1 strain …. This is another data set of the same source.
Assay [4] deals with T2, HIV-1 envelope protein of HIV-1 strain …. The source holds these as a separate data set.
For assay [5], the target named is T1, HIV-1 envelope protein of HIV-1 strain …. This is another data set of the same source.
The target in assay [6] is T2, HIV-1 envelope protein of HIV-1 strain …. This is another data set of the same source.

B1: Anti-HIV tritropic neutralizing antibody-like molecule KL-BsHIV01-003-02 (other)
chain: SELTQDPAVSVALKQTVTITCRGDSLRSHYASWYQKKPGQAPVLLFYGKNNRPSGIPDRFSGSASGNRASLTITGAQAEDEADYYCSSRDKSGSRLSVFGGGTKLTVLGGGGSGGGGSGGGGSEVRLRESGGGLVKPGGSLRLSCSASGFDFDNAWMTWVRQPPGKGLEWVGRITGPGEGWSVDYAESVKGRFTISRDNTKNTLYLEMNNVRTEDTGYYFCARTGKYYDFWFGYPPGEEYFQDWGQGTLVIVSSGGGGSGGGGSGGGGSGGGGSGGGGSDIVMTQSPDSLAVSLGERVTMNCKSSQSLLYSTNQKNYLAWYQQKPGQSPKLLIYWASTRESGVPDRFSGSGSGTDFTLTISSVQAEDVAVYYCQQYYSYRTFGGGTKLEIKRTVAGGGGSGGGGSGGGGSQVQLQQSGPEVVKPGASVKMSCKASGYTFTSYVIHWVRQKPGQGLDWIGYINPYNDGTDYDEKFKGKATLTSDTSTSTAYMELSSLRSEDTAVYYCAREKDNYATGAWFAYWGQGTLVTVSSGGGGSGGGGSGGGGSGGGGSGGGGSWEQKIEELLKKAEEQQKKNEEELKKLEK
Consider B1, for which, in assay [1], the “Neutralization percentage; AAV vector-transduced C2C12 supernatant, antibody concentration 2.5 ng/ml; TZM-bl luciferase” value is 101%; the “Neutralization percentage; AAV vector-transduced C2C12 supernatant, antibody concentration 5 ng/ml; TZM-bl luciferase” value worked out at 101%; the “Neutralization percentage; AAV vector-transduced C2C12 supernatant, antibody concentration 10 ng/ml; TZM-bl luciferase” value turned out to be 100%. Moreover, in assay [2], the “Neutralization percentage; AAV vector-transduced C2C12 supernatant, antibody concentration 2.5 ng/ml; TZM-bl luciferase” value is 100%; the “Neutralization percentage; AAV vector-transduced C2C12 supernatant, antibody concentration 5 ng/ml; TZM-bl luciferase” value was found to be 100%; the “Neutralization percentage; AAV vector-transduced C2C12 supernatant, antibody concentration 10 ng/ml; TZM-bl luciferase” value amounted to 100%. For the same molecule, in assay [3], the “Neutralization percentage; serum of mice injected with AAV vector, serum stock volume 0.005 uL; TZM-bl luciferase” value was 23.4%; the “Neutralization percentage; serum of mice injected with AAV vector, serum stock volume 0.05 uL; TZM-bl luciferase” value came to 56.7%; the “Neutralization percentage; serum of mice injected with AAV vector, serum stock volume 0.5 uL; TZM-bl luciferase” value is 99.4%. In assay [4], the “Neutralization percentage; serum of mice injected with AAV vector, serum stock volume 0.005 uL; TZM-bl luciferase” value is -11.7%; the “Neutralization percentage; serum of mice injected with AAV vector, serum stock volume 0.05 uL; TZM-bl luciferase” value is -6.85%; the “Neutralization percentage; serum of mice injected with AAV vector, serum stock volume 0.5 uL; TZM-bl luciferase” value stood at 62.5%. Moreover, the “IC50 for neutralizing HIV-1 strain pNL4-3 (CXCR4 tropism); purified antibody, TZM-bl luciferase” value in assay [5] came out at 0.2 pM. Also, in assay [6], the “IC50 for neutralizing HIV-1 strain pAD-8 (CCR5 tropism); purified antibody, TZM-bl luciferase” value was determined as 3.1 pM.

B2: Anti-HIV amphotropic neutralizing antibody-like molecule KL-BsHIV01-02 (bispecific antibody)
chain: SELTQDPAVSVALKQTVTITCRGDSLRSHYASWYQKKPGQAPVLLFYGKNNRPSGIPDRFSGSASGNRASLTITGAQAEDEADYYCSSRDKSGSRLSVFGGGTKLTVLGGGGSGGGGSGGGGSEVRLRESGGGLVKPGGSLRLSCSASGFDFDNAWMTWVRQPPGKGLEWVGRITGPGEGWSVDYAESVKGRFTISRDNTKNTLYLEMNNVRTEDTGYYFCARTGKYYDFWFGYPPGEEYFQDWGQGTLVIVSSGGGGSGGGGSGGGGSGGGGSGGGGSDIVMTQSPDSLAVSLGERVTMNCKSSQSLLYSTNQKNYLAWYQQKPGQSPKLLIYWASTRESGVPDRFSGSGSGTDFTLTISSVQAEDVAVYYCQQYYSYRTFGGGTKLEIKRTVAGGGGSGGGGSGGGGSQVQLQQSGPEVVKPGASVKMSCKASGYTFTSYVIHWVRQKPGQGLDWIGYINPYNDGTDYDEKFKGKATLTSDTSTSTAYMELSSLRSEDTAVYYCAREKDNYATGAWFAYWGQGTLVTVSS
Take B2: in assay [1], the “Neutralization percentage; AAV vector-transduced C2C12 supernatant, antibody concentration 2.5 ng/ml; TZM-bl luciferase” value is 100%; the “Neutralization percentage; AAV vector-transduced C2C12 supernatant, antibody concentration 5 ng/ml; TZM-bl luciferase” value worked out at 101%; the “Neutralization percentage; AAV vector-transduced C2C12 supernatant, antibody concentration 10 ng/ml; TZM-bl luciferase” value was 100%. For the same molecule, in assay [2], the “Neutralization percentage; AAV vector-transduced C2C12 supernatant, antibody concentration 2.5 ng/ml; TZM-bl luciferase” value worked out at 100%; the “Neutralization percentage; AAV vector-transduced C2C12 supernatant, antibody concentration 5 ng/ml; TZM-bl luciferase” value came out at 100%; the “Neutralization percentage; AAV vector-transduced C2C12 supernatant, antibody concentration 10 ng/ml; TZM-bl luciferase” value stood at 100%. In assay [3], the “Neutralization percentage; serum of mice injected with AAV vector, serum stock volume 0.005 uL; TZM-bl luciferase” value is 27.7%; the “Neutralization percentage; serum of mice injected with AAV vector, serum stock volume 0.05 uL; TZM-bl luciferase” value was determined as 79%; the “Neutralization percentage; serum of mice injected with AAV vector, serum stock volume 0.5 uL; TZM-bl luciferase” value came out at 100%. Moreover, in assay [4], the “Neutralization percentage; serum of mice injected with AAV vector, serum stock volume 0.005 uL; TZM-bl luciferase” value is -15.7%; the “Neutralization percentage; serum of mice injected with AAV vector, serum stock volume 0.05 uL; TZM-bl luciferase” value was -4.43%; the “Neutralization percentage; serum of mice injected with AAV vector, serum stock volume 0.5 uL; TZM-bl luciferase” value turned out to be 81.7%.
